For 16 variants, Kd results are on record in publication PMC9396398, “Crystal structure of Ankyrin-G in complex with a fragment of Neurofascin reveals binding mechanisms required for integrity of the axon initial segment” (The Journal of Biological Chemistry, 2022).

B1: Nfasc ankyrin-binding domain (ABD, residues 1187-1214) [not stated] / AnkG ANK repeats (residues 38-855, R1-24) [not stated] (parent complex)
chain 1: SDDSLVDYGEGGEGQFNEDGSFIGQYTV
chain 2: KSDANASYLRAARAGHLEKALDYIKNGVDVNICNQNGLNALHLASKEGHVEVVSELLQREANVDAATKKGNTALHIASLAGQAEVVKVLVTNGANVNAQSQNGFTPLYMAAQENHLEVVRFLLDNGASQSLATEDGFTPLAVALQQGHDQVVSLLLENDTKGKVRLPALHIAARKDDTKAAALLLQNDTNADIESKMVVNRATESGFTPLHIAAHYGNINVATLLLNRAAAVDFTARNDITPLHVASKRGNANMVKLLLDRGAKIDAKTRDGLTPLHCGARSGHEQVVEMLLDRAAPILSKTKNGLSPLHMATQGDHLNCVQLLLQHNVPVDDVTNDYLTALHVAAHCGHYKVAKVLLDKKANPNAKALNGFTPLHIACKKNRIRVMELLLKHGASIQAVTESGLTPIHVAAFMGHVNIVSQLMHHGASPNTTNVRGETALHMAARSGQAEVVRYLVQDGAQVEAKAKDDQTPLHISARLGKADIVQQLLQQGASPNAATTSGYTPLHLSAREGHEDVAAFLLDHGASLSITTKKGFTPLHVAAKYGKLEVASLLLQKSASPDAAGKSGLTPLHVAAHYDNQKVALLLLDQGASPHAAAKNGYTPLHIAAKKNQMDIATSLLEYGADANAVTRQGIASVHLAAQEGHVDMVSLLLSRNANVNLSNKSGLTPLHLAAQEDRVNVAEVLVNQGAHVDAQTKMGYTPLHVGCHYGNIKIVNFLLQHSAKVNAKTKNGYTPLHQAAQQGHTHIINVLLQNNASPNELTVNGNTALAIARRLGYISVVDTLKVVTEEIMTTTTITEKHKMNVPETMNEVLDMS
B2: Nfasc 1198 to 1214 WT [not stated] / AnkG ANK repeats (residues 38-855, R1-24) [not stated] (parent complex)
chain 1: GEGQFNEDGSFIGQYTV
chain 2: B1 chain 2

Variants of B1 are the subject of one experiment. The experiment can be described thus: ITC; parent: 220 nM.
For orientation: Kd means a measure of binding affinity in units of concentration. With chain 2 T302A, chain 2 N304A, the Kd was determined as 2500 nM.
Turning to chain 2 L306Q, chain 2 L339Q, the Kd turned out to be 2000 nM.
The same measure, in the same setting: as for chain 2 R281A, chain 2 Q314A, the figure is 670 nM; as for chain 2 H347A, 1700 nM; as for chain 2 M311Q, 1800 nM.
The same measure, in the same setting: as for chain 2 I240Q, chain 2 L273Q, the figure is 3000 nM.
The same measure, in the same setting: as for chain 2 V245Q, the figure is 1300 nM.

The variants in another experiment derive from B2. Description: ITC; parent: 340 nM.
Turning to chain 1 GEGQFNEDGSFIGQYAV [chain 1 T16A], the dissociation constant Kd was determined as 460 nM.
Same read-out and setting: for chain 1 GEGQFNEDGSFIGQETV [chain 1 Y15E] the value was 3200 nM.
Still for that read-out and setting: for chain 1 GEGQFNEKGSFIGQYTV [chain 1 D8K] the value was 7700 nM; for chain 1 GEGQFNEAGSFIGQYTV [chain 1 D8A], 1300 nM.
On the same count and under the same terms, for chain 1 GEGQQNEDGSFIGQYTV [chain 1 F5Q] the value was 7100 nM; for chain 1 GEGQFNEDGSFQGQYTV [chain 1 I12Q], 1000 nM.
With chain 1 GEGQFNEDGSQIGQYTV [chain 1 F11Q], the Kd came out at 1400 nM.
Still for that read-out and setting: as for chain 1 GEGQFAEDGSFIGQYTV [chain 1 N6A], the figure is 260 nM.
The same measure, in the same setting: as for chain 1 GEGQFNADGSFIGQYTV [chain 1 E7A], the figure is 9200 nM.
